Source: US10933119B2, “Aortopathy” (University of Leicester, priority 2015, dated 2021)

Assays:
[1] = Plasma GM-CSF concentration (ELISA) after recombinant GM-CSF infusion; assay type: in vivo; conditions: wild-type mice
Experimental: (§1) Wild-type mice were injected intraperitoneally with 110 mg kg−1 of clodronate liposomes or equal volume of PBS liposomes 2 days prior and 7 days after induction of aortic dissection. Neutralizing antibody against GM-CSF (300 μg, R&D systems) or control anti-rat IgG antibody (Equitech Bio) was administered every other day by intraperitoneal injection. Recombinant murine GM-CSF (10, 50, 100 μg kg−1 day−1, PeproTech) was administered for two weeks or four weeks after induction of aortic dissection.
Plasma levels of IL-6, MCP-1 and GM-CSF in mice or in humans with or without aortic dissection/intramural hematoma were assayed with commercially available quantikine ELISA kits (R&D systems) according to the manufacturer's instructions. Sera of healthy volunteers and of patients with aortic aneurysm, coronary artery disease or with aortic dissection were obtained with informed consent under a protocol approved by the University of Tokyo hospital research ethics committee.

[2] = tested on: leukocytes in peripheral blood; test: Number of leukocytes in peripheral blood after GM-CSF blockade by neutralizing antibody; assay type: in vivo; design: Lymphocytes in peripheral blood: unit not given here; conditions: KLF6fl/fl;LysM Cre mice, CaCl2 + AngII
Experimental: (§2) To induce aortic dissection/intramural hematoma, peri-aortic application of CaCl2 was done to the abdominal aorta, followed by two-week infusion of AngII (2000 ng kg−1 min−1) (40). In detail, mice were anesthetized and underwent laparotomy at 10- to 13-weeks of age. The abdominal aorta between the renal arteries and bifurcation of the iliac arteries was isolated from the surrounding retroperitoneal structure, and 0.5 M CaCl2 was applied to the external surface of the infrarenal aorta. NaCl (0.9%) was substituted for CaCl2 in sham control mice. The aorta was rinsed with 0.9% sterile saline after 15 min and the incision was closed.
as §1
Aortas were minced into 3- to 4-mm pieces and placed in 1 ml digestion solution containing collagenase type II (1.25 mg ml−1, Worthington) and porcine pancreatic elastase (50 μg ml−1, Worthington) in base solution of Accumax (Innovative Cell Technologies). Aortic tissue was digested at room temperature with agitation for 1 h. After digestion, cells were washed in FACS buffer (5% FCS in PBS) at 2000 rpm for 5 min. Aortic macrophages were isolated using CD11b microbeads according to the manufacturer's instructions (Miltenyi Biotec). Spleen was homogenized and passed through a cell strainer to obtain single-cell suspensions. Bone marrow-derived cells were taken from the femur and tibia of 5- to 6-week-old mice. Blood was collected in heparin-coated vials and then 1.2% dextran was added for 45 min at room temperature. Counting of peripheral leukocytes was done by automated hematology analyzer (XT-2000i, Sysmex). […]

[3] = tested on: leukocytes in peripheral blood; test: Number of leukocytes in peripheral blood after GM-CSF administration; assay type: in vivo, mice; design: Lymphocytes in peripheral blood: unit not given here; conditions: for Lymphocytes in peripheral blood / Monocytes in peripheral blood / Neutrophils in peripheral blood: wild type mice
Experimental: as §2, §1
Aortas were minced into 3- to 4-mm pieces and placed in 1 ml digestion solution containing collagenase type II (1.25 mg ml−1, Worthington) and porcine pancreatic elastase (50 μg ml−1, Worthington) in base solution of Accumax (Innovative Cell Technologies). Aortic tissue was digested at room temperature with agitation for 1 h. After digestion, cells were washed in FACS buffer (5% FCS in PBS) at 2000 rpm for 5 min. Aortic macrophages were isolated using CD11b microbeads according to the manufacturer's instructions (Miltenyi Biotec). Spleen was homogenized and passed through a cell strainer to obtain single-cell suspensions. Bone marrow-derived cells were taken from the femur and tibia of 5- to 6-week-old mice. Blood was collected in heparin-coated vials and then 1.2% dextran was added for 45 min at room temperature. Counting of peripheral leukocytes was done by automated hematology analyzer (XT-2000i, Sysmex). Neutrophils were isolated from bone marrow using a neurophil isolation kit according to the manufacturer's instructions (Miltenyi Biotec). From single-cell suspensions of spleen, bone marrow and blood, erythrocytes were lysed using ACK lysis buffer for 5, 3 and 2 min on ice, respectively. Cells were centrifuged at 2000 rpm for 5 min to remove the ACK lysis buffer, then the single-cell suspensions were resuspended and washed in FACS buffer, followed by centrifugation at 2000 rpm for 5 min.

wild-type mice = test: Murine aortic dissection/intramural hematoma model with recombinant GM-CSF administration; assay type: in vivo
Experimental: as §2, §1
Aortas from mice were embedded in paraffin then 5-μm-thick serial sections were prepared for Elastic Von Gienson (EVG) and hematoxylin/eosin (HE) staining. Digital images of EVG-stained aortas with reference scale were used for absolute measurement of diameter. Human aortic tissue was obtained from patients undergoing surgical aortic repair with informed consent under a protocol approved by the University of Tokyo hospital research ethics committee. Paraffin-embedded sections were taken from the aorta for EVG staining and immunohistochemistry. […]

B1: GM-CSF: Recombinant murine GM-CSF (PeproTech), granulocyte macrophage colony-stimulating factor (protein, UniProt P01587 18-141, looked up)
Granulocyte-macrophage …: APTRSPITVTRPWKHVEAIKEALNLLDDMPVTLNEEVEVVSNEFSFKKLTCVQTRLKIFEQGLRGNFTKLKGALNMTASYYQTYCPPTPETDCETQVTTYADFIDSLKTFLTDIPFECKKPGQK
With B1 the “increased circulating levels of GM-CSF” value ([1]; GM-CSF alone, 2 weeks infusion) was “at least 180.9 fold”, the “circulating levels of GM-CSF” value ([1]; combination of GM-CSF with CaCl2 + AngII compared to each alone) was “markedly elevated” and the “Lymphocytes in peripheral blood” value [2] was 1843.3 ± 311.1. For the same molecule, the Monocytes in peripheral blood [2] was 82.5 ± 12.5 cells/µL, the Neutrophils in peripheral blood [2] was 786 ± 118 cells/µL and the “number of neutrophils in peripheral blood” value ([3]; 14 days of GM-CSF administration) was “no difference”. The “number of neutrophils in peripheral blood” value ([3]; GM-CSF administration, early phase) was “markedly increased”, the “number of circulating lymphocytes” value ([3]; GM-CSF administration, early phase (5 days) or developed phase (14 days)) was “did not change” and the “Lymphocytes in peripheral blood” value ([3]; CaCl2 + AngII, 5 days) was 1803.3 ± 124.0. For the same molecule, the Monocytes in peripheral blood ([3]; CaCl2 + AngII, 5 days) was 387 ± 112 cells/µL, the Neutrophils in peripheral blood ([3]; CaCl2 + AngII, 5 days) was 1690 ± 147 cells/µL and the “Lymphocytes in peripheral blood” value ([3]; CaCl2 + AngII, 14 days) was 1667.2 ± 371.3. For the same molecule, the Monocytes in peripheral blood ([3]; CaCl2 + AngII, 14 days) was 310 ± 45.9 cells/µL, the Neutrophils in peripheral blood ([3]; CaCl2 + AngII, 14 days) was 1050 ± 259 cells/µL and the “Lymphocytes in peripheral blood” value ([3]; Sham, 5 days) was 3150.0 ± 234.5. The Monocytes in peripheral blood ([3]; Sham, 5 days) was 353 ± 103 cells/µL, the Neutrophils in peripheral blood ([3]; Sham, 5 days) was 2540 ± 454 cells/µL and the “Lymphocytes in peripheral blood” value ([3]; Sham, 14 days) was 3052.0 ± 420.3. The Monocytes in peripheral blood ([3]; Sham, 14 days) was 295 ± 66.2 cells/µL, the Neutrophils in peripheral blood ([3]; Sham, 14 days) was 976 ± 117 cells/µL and the aortic dissection/intramural hematoma (wild-type mice; wild-type mice subjected to aortic inflammation (CaCl2+AngII) plus GM-CSF) was “caused”. The death of mice (wild-type mice; wild-type mice, GM-CSF with CaCl2+AngII) was “died from aortic rupture” and the aortic dissection/intramural hematoma (wild-type mice; wild-type mice, administration of GM-CSF alone) was “did not develop”.
